From paper PMC4317691, “Stability of glucagon-like peptide 1 and glucagon in human plasma” (Endocrine Connections, 2015)

Assays:
[1] = human plasma, no ice
Experimental: GLP-1 and glucagon (0 and 40 pmol/l) were added to the portions, whereafter they were stored at either room temperature or on ice for 1 h and measured (as described below plasma samples after extraction and buffer samples directly).

[2] = Stability of glucagon in frozen assay buffer with 6% HSA; assay type: physicochemical; settings: 40 pmol/l, -20 °C for up to 72 h
[3] = Experimental: The aliquots (N=6–8) of spiked plasma were then: i) immediately extracted with ethanol (final concentration 70%, for this treatment we used N=21); ii) subjected to one freeze–thaw cycle (placed at −20 °C for ∼1 h followed by thawing in an ice bath) and extracted (using 70% ethanol, final concentration) immediately upon thawing; iii) subjected to two freeze–thaw cycles and extracted immediately upon second thawing; iv) subjected to three freeze–thaw cycles and extracted immediately upon third thawing; v) kept on ice for 1 h and extracted immediately after; vi) kept on ice for 3 h and extracted immediately after; vii) kept without ice for 1 h at RT and extracted immediately after; viii) kept without ice for 3 h and extracted immediately after.
Later, an additional plasma pool was prepared of fresh plasma from some (n=5) of the healthy subjects contributing to the first pool, spiked with glucagon (0 and 40 pmol/l, final concentration), and aliquoted. Thereafter, the valiquots were kept on ice for up to 24 h. These aliquots (N=6–8 for each time point) were extracted after 1, 3, 6, 12, and 24 h, respectively, measured (see below) and compared with a set of aliquots extracted immediately after spiking with peptide. […] After extraction, peptide concentrations were analyzed using the assays described below. […]

[4] = remark: listed apart in the source
Experimental: From each of the original spiked plasma portions, eight to ten aliquots were distributed into low-adsorption Nunc tubes (VWR-Bie&Berntsen A/S, Herlev, Denmark). One set of samples (N=8–10) was extracted and analyzed immediately to serve as controls. The remaining eight sets were divided into two and stored at −20 °C or −80 °C. Samples (N=8–10) from each set were analyzed after 1, 3, 6, and 12 months of storage. In addition, seven portions of the new plasma pool as well as assay buffer (to which was added 6% human serum albumin (HSA) to mimick plasma), spiked with 0 and 40 pmol/l of glucagon (N=5 for each set of spiked samples), were assayed (plasma after extraction) after freezing (at −20 °C) for 0 (i.e., they were measured immediately without freezing), 1, 3, 6, 12, 24, and 72 h of storage at −20 °C.
The recovery in percent was calculated as the measured concentration in the individual, spiked plasma sample minus the concentration in the corresponding non-spiked plasma sample divided by the theoretical spiked concentration of peptide and multiplied by 100. For the presentation of data, we normalized the recovery after each treatment by adjusting for the recovery of the samples extracted immediately, set as 100% (Table 1). Differences between treatments were analyzed by one-way ANOVA for repeated measurement with post hoc Bonferroni correction. […]

Compound	Recovery of intact GLP-1 on addition of a DPP4 inhibitor [1]	Recovery of glucagon in buffer after freezing [2]	Glucagon recovery at RT for 3 h, N-terminal-specific assay [3]	Glucagon stability at RT for 1 h [3]	Loss of glucagon recovery after 1 month of frozen storage [4]
CC[C@H](C)[C@H](NC(=O)[C@H](Cc1ccccc1)NC(=O)[C@H](CCC(=O)O)NC(=O)[C@H](CCCCN)NC(=O)[C@H](C)NC(=O)[C@H](C)NC(=O)[C@H](CCC(N)=O)NC(=O)CNC(=O)[C@H](CCC(=O)O)NC(=O)[C@H](CC(C)C)NC(=O)[C@H](Cc1ccc(O)cc1)NC(=O)[C@H](CO)NC(=O)[C@H](CO)NC(=O)[C@@H](NC(=O)[C@H](CC(=O)O)NC(=O)[C@H](CO)NC(=O)[C@@H](NC(=O)[C@H](Cc1ccccc1)NC(=O)[C@@H](NC(=O)CNC(=O)[C@H](CCC(=O)O)NC(=O)[C@H](C)NC(=O)[C@@H](N)Cc1c[nH]cn1)[C@@H](C)O)[C@@H](C)O)C(C)C)C(=O)N[C@@H](C)C(=O)N[C@@H](Cc1c[nH]c2ccccc12)C(=O)N[C@@H](CC(C)C)C(=O)N[C@H](C(=O)N[C@@H](CCCCN)C(=O)NCC(=O)N[C@@H](CCCNC(=N)N)C(N)=O)C(C)C [GLP-1 7–36NH2]	increased				
glucagon 1–29		unaffected	significant (P=0.02) reduction	relatively stable	about 50%
